Experimental data reported in the nanobody polyreactivity screen of Harvey et al. (2022).

Test: yeast display, Sf9 membrane polyspecificity reagent, FACS + sequencing; frameworks hold sequencing errors
Summary of the method: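 Synthetic nanobody libraries on Saccharomyces cerevisiae BJ5465 were galactose-induced for 36–48 hours, stained 1 hour at 4 °C with 10% biotinylated, detergent-solubilized Sf9 membrane reagent and enriched on streptavidin microbeads. FACS then separated cells into low and high (top ~1%) gates by anti-HA (expression) and streptavidin (reagent binding) fluorescence. Genes were colony-PCR amplified, MiSeq 2 × 250 sequenced and CDR-length filtered. A clone's polyreactivity label is that of its gate of origin.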

| Sequence | polyreactivity (PSR sort gate) |
| --- | --- |
| QVQLVESGGGLVQAGGSLRLSCAASGSTIGDNAMGWYRQAPGKERELVASITGGGGSTYYADSVKGRFTISRDNAKNTVYLQMNSLKPEDTAVYYCAAVYQSYTYYLPKYWSFYQNDYWGQGTQVTVSS | low polyreactivity |
| QVQLVESGGGLVQAGGSLRLSCAASGSTIGFYAMGWYRQAPGKERELVAVISSSSSTNYADSVKGRFTISRDNAKNTVYLQMNSLKPKIPAVYYCNAKWTTLFDYWGQGTQVTVSS | high polyreactivity |
| QVQLVESGGGLVQAGGSLRLSCAASGSTIGLNAMGWYIQEPGKEREFVAAISVSSGNKYYADSVKGRFTISRDNAKNTVYLQMNSLKPEDTAVYYCAARPRSHYIAQYYYWGQGTHVTVSS | low polyreactivity |
| QVQLVESGGGLVQAGGSLRLSCAASGSTIGPNAMGSYRQAPGKERELVAAIRSNGGRTYYADSVKGRFTISRDNAKNTVYLQMNSLKPEDTAVYYCAAPHYPYDTPYGYWGQGTQVTVSS | low polyreactivity |
| QVQLVESGGGLVQAGGSLRLSCAASGSTIGVYAMGWYRQAPGKERELVAAITSGDSTNYADSVKGRFTISRDNAKNTVYLQMYSLKPEDTAVYYCNARQLYYWYYAYDYWGQGTQVTVST | low polyreactivity |
| QVQLVESGGGLVQAGGSLRLSCAASGSTIIGYTMGWYRQAPGKERELVADISNGGSTNYADSVKGRFTISRDNAKNTVYLQLNSLKPEDTAVYYCNAEAWYYWGWPFFIATYDYWGQGTQVTVSS | low polyreactivity |
| QVQLVESGGGLVQAGGSLRLSCAASGSTIKPYTMGWYRPAPGKERELVAAITSGGRTYYADSVKGRFTISRDNAKNTVYLQMNSLKPEDTAVYYCNARRYLWLRRYDYWGQGTQVTVSS | high polyreactivity |
| QVQLVESGGGLVQAGGSLRLSCAASGSTIKYYAMGWYRQAPGKERELVAAINWSGDSTYYADSVKGRFTISRDNAKNTVYLQMNSLKPEDTAVYYCAVRYQKRAYYGSNYWGQGTQVTVSS | high polyreactivity |
| QVQLVESGGGLVQAGGSLRLSCAASGSTILKYAMGWYRQAPGKERELVAAITSDGTSYADSVKGRFTISRDNAKNTVYLQMNSLKPEDTAVYYCAIDYRHPTFDYWGQGTQVTVSS | low polyreactivity |
| QVQLVESGGGLVQAGGSLRLSCAASGSTILYYAMGWYRPAPGKERELVAAITWSGGPTYYADSVKGRFTISRDNAKMSGYLLMTSLKPEDTAVYYCNKADPWLRSTALNPGLYDYWGQGTQVTVSS | high polyreactivity |
| QVQLVESGGGLVQAGGSLRLSCAASGSTINHYAMGWYRQAPGKERELVAAISWSGGSTRYADSVKGRFTISRDNAKNTVYLQMNSLKPEDTAVYYCAARGYGKYYYWGQGTQVTVSS | high polyreactivity |
| QVQLVESGGGLVQAGGSLRLSCAASGSTINQYPLGWYRQATGKERELVAAITRRGGSTYYADSVKGRFTISRDNAKNTVYLQMNSLKPEDTAVYYCAAAYPYTTVSYDYWGQGTQVTVSS | high polyreactivity |
| QVQLVESGGGLVQAGGSLRLSCAASGSTINSYTKGWYSQAPRKERELVAAISGSSGRTYDADSVKGRFTISRDNAKNTVYLQMNSLKPEDTAVYYGAAVDLYGGSDYWGQGTQVTVSS | high polyreactivity |
| QVQLVESGGGLVQAGGSLRLSCAASGSTIPLYAMGWYRQAPGKERELVAAISRRGGRTYYADSVKGRFTISRDYAKNTVYLQMNSLKQEDTAVYYCATAQGSRVDYWGQGTQVTVSS | high polyreactivity |
| QVQLVESGGGLVQAGGSLRLSCAASGSTIQYYTMGWYRQAPGKERELVASITSGDSTNYADSVKGRFTISRDNAKNTVYLQMNSLKPEDTAVYYCARDRVSTQLQSSPAVSELYYWGQGTQVNVSS | low polyreactivity |
| QVQLVESGGGLVQAGGSLRLSCAASGSTIRNYAMGWYRQAPGKERELVAAISSGGRTYYADSVKGRFTISRDNAKNTVYLQMNSLKPEDTAVYYCYTPYTVRGRYSYDYWGQGTQVTVSS | high polyreactivity |
| QVQLVESGGGLVQAGGSLRLSCAASGSTIRQNAMGWSSQAPGKEMELVAAITYTGGSTYYADSVKGRYTISRDNAKNTVYLEMNSLKPEDTSVYYCAATYLSYYHGWVNYWGEGTQVTVSS | high polyreactivity |
| QVQLVESGGGLVQAGGSLRLSCAASGSTIRRYAMGWSRQAPGKERELVAAITRSGGSTYYADSVKGRFTISRDNAKNTVYLQMNSLKPEDTEVYYCAADTGTGLDWGQGTQVTVSS | high polyreactivity |
| QVQLVESGGGLVQAGGSLRLSCAASGSTIRYYVKGWYRQAPGKERELVAAISYNGGSTYYADSVKGRFTISRDTAKNTVYLHMNSVTPEDTAVYYCAADAPYRSSGKDYWGQGTQVTVSS | high polyreactivity |
| QVQLVESGGGLVQAGGSLRLSCAASGSTISVNAMGWYRQAPGKERELVAAISDRGGSTYYADSVKGRFTISRDNAKNTVYLQMNSLKPEDTAVYYCAALFLRVTYFRLGLYSYEYWGQGTQVTVSS | low polyreactivity |
| QVQLVESGGGLVQAGGSLRLSCAASGSTITYNAMGWYRQAPGKERELVAAITVSDGSTYYADSVKGRFTISRDNAKNTVYLQMNSLKPEDTAVYYCNKDRGHPFKYDYWGQGTQVTVSS | low polyreactivity |
| QVQLVESGGGLVQAGGSLRLSCAASGSTIVGYAMGWYRQAPGKERELVAAISRTGASTYYADSVKGRFTISRDNAKNTVYLQMISLKPEDTAVYYCAAGREYWGVTREYWGQGTQVTVSS | high polyreactivity |

| Sequence | polyreactivity (PSR sort gate) |
| --- | --- |
| QVQLVESGGGLVQAGGSLRLSCAASGSTIVQNAMGWYRQAPAKERELVAAISRTGGSTYYADSVKGRFTISRDNAKNTVYLQMNSLKPEDTAVYYCAKRPPHYSWPKLIEFGSWGQGNQVTVSS | high polyreactivity |
| QVQLVESGGGLVQAGGSLRLSCAASGSTIWPYTMGWYRQAPGKERELVAAITLRGGTTYYADSVKGRFTISRDNAKNTVYLQMNSLKPEDTVVYYCNATSGNPASTAWMNYWGQGTQVTVSS | low polyreactivity |
| QVQLVESGGGLVQAGGSLRLSCAASGSTIWRNTMGWYRQAPGKERELVADIRNVGSTYYADSVKGLFTISRDNAKNTVYLQMNSLKPEDTAVYYCYARWRFLYDYWGQGTQVTVSS | high polyreactivity |
| QVQLVESGGGLVQAGGSLRLSCAASGSTIYDYTMGWYRQAPGKERELVAAISSDGSTYYADSVKGRFTISRDNAKITVYLKMNSLKPEDTAVYYCNADAGFLSLRGYDYWGQGTQVTVSS | low polyreactivity |
| QVQLVESGGGLVQAGGSLRLSCAASGSTIYHYTMECYRQAPGKERELVAAITYSGGRTYYADSVKGRFTISRDNAKNTVYLQMNSLKPEDTAVYYCAATYSTPGAGYYHYWGQGTQVTVSS | high polyreactivity |
| QVQLVESGGGLVQAGGSLRLSCAASGSTIYRYAMGWYRQAPGKERELVATISRTGARTNYADSVKGRFTISRDNAKNTVYLQMNSLKPEDTAVYYCAASAPYIYYWGQGTQVTVSS | high polyreactivity |
| QVQLVESGGGLVQAGGSLRLSCAASGSTIYYNAMGWYRQAPGKERELVATITSAGRTNYADSVKGRFTISRDNAKNTVSLLMNSLKPEDTAVYYCNARYRLSRYNYWGQGTQVNVSS | low polyreactivity |
| QVQLVESGGGLVQAGGSLRLSCAASGSTLAGYAMGWYRPAPGKERELVAAIDWTGGSTTYADSVKGRFTISRDNAKNTVYLQMNSLKPEDTAVYYCNVDLGVNGDYWGQGTQVTVSS | low polyreactivity |
| QVQLVESGGGLVQAGGSLRLSCAASGSTLAIYAMGWYRQAPGKEREWVAAISRSGGTTYYADSVKGRFTISRDNAKNTVYLQMNSLKPEDTAVYYCYPYFWYPDGYTYDYWGQGTQVTVSS | high polyreactivity |
| QVQLVESGGGLVQAGGSLRLSCAASGSTLAPYVMGWYRQAPGKERELVSVISTRTGRTSYADSVKGRFTLSRDNAKNTVYLQMNSLKPEDTAVYYCNAQWVSWWSLYDYWGQGTQVTVSS | high polyreactivity |
| QVQLVESGGGLVQAGGSLRLSCAASGSTLATYTMGWYRQAPGKERELVAAISFGGSTYYAYSVKGRFTISRDNAKNTVYLQMNSLKPEDTAVYYCAVYGDSYWGAYYYSDGYWGQGTQVTVSS | low polyreactivity |
| QVQLVESGGGLVQAGGSLRLSCAASGSTLDSYTMGWYRQAPGKERELVATISTSGGSTYYADAVKGRFTISRDNAKNTVSIQMNSLKPEDTAVYYCKADAPFGPNRYNSWGQGTQVTVSS | low polyreactivity |
| QVQLVESGGGLVQAGGSLRLSCAASGSTLDTYAMGWYRQAPGKERELVAGITWSGGSTYYADSVKGRFTISRDNAKNTVYLQMNSLKPEDTAVYYCAAYSPYGPRYDYWGQGTQVTVSS | low polyreactivity |
| QVQLVESGGGLVQAGGSLRLSCAASGSTLEFNARGWYRQAPGKERELVAVINRSDGSTYYAASVKGRFTISRDNAKNTVYLQMNSLKPEDTAVYYCAADRHQVSVISTEDYWGQGTQVTVSS | low polyreactivity |
| QVQLVESGGGLVQAGGSLRLSCAASGSTLEYYAMGWYRQAPGKERELVAAITYSGGDTYYADSVKGRFTISRDNAKNTVYLQMNSLKPEDTAVYYCAAEALYYPYETYDYWGQGTQVTVSS | high polyreactivity |
| QVQLVESGGGLVQAGGSLRLSCAASGSTLFAYAMGWYRQAPGKERELVAAITSGASTNYADSVKGRFTISRDNAKNTVYLQMNSLKPEDTAVYYCAKDVSGTNPDYDYWGQGTQVTVSS | low polyreactivity |
| QVQLVESGGGLVQAGGSLRLSCAASGSTLFFYTMGWYRQAPGKERELVAAITRGGSTYYADSVKGRFTISRDNAKNTVYLQLNSLKPEDTAVYYCAAPYVRPKKVYNYDYWGQGTQVTVSS | high polyreactivity |
| QVQLVESGGGLVQAGGSLRLSCAASGSTLGANAMGWYRQAPGKERELVAAISISDGDTYYADSVKGRFTISRDYAKNTVYLQMNSLKPEDTAVYYCAADYWFQYRWYDYWGQGTQVTVSS | high polyreactivity |
| QVQLVESGGGLVQAGGSLRLSCAASGSTLGAYAMGWYRQAPGKERELVAAISRSGGNTYYADSVKGRFTISRDNAKNTVYLQMNSLKPEDTAVYYCAAVRLYRYDYWGQGTQVTVSS | low polyreactivity |
| QVQLVESGGGLVQAGGSLRLSCAASGSTLGKYAMGWYRQAPGKERELVARITLNGGRTYYADSVKGRFTISRDNAKNTVYLQMNSLKPEDTAVYYCAKSLPHSTSRDYWGQGTQVTVSS | low polyreactivity |
| QVQLVESGGGLVQAGGSLRLSCAASGSTLGRNAMGWYRQAPGKERELVASITRSGGSTYYADSVKGRFTISRDNAKNTVYLQMNSLKPEDTAVYYCAAEVQGQVGEFDYWGQGTQVTVSS | low polyreactivity |
